# US12606635B2, “Glypican-2-binding moieties, chimeric antigen receptors and uses thereof” (Nanjing Legend Biotech Co., Ltd., priority 2020, dated 2026)
# T1: recombinant human GPC2-His protein (Homo sapiens, UniProt Q8N158)
# T1 construct: His
# T1 sequence (Q8N158 24-554): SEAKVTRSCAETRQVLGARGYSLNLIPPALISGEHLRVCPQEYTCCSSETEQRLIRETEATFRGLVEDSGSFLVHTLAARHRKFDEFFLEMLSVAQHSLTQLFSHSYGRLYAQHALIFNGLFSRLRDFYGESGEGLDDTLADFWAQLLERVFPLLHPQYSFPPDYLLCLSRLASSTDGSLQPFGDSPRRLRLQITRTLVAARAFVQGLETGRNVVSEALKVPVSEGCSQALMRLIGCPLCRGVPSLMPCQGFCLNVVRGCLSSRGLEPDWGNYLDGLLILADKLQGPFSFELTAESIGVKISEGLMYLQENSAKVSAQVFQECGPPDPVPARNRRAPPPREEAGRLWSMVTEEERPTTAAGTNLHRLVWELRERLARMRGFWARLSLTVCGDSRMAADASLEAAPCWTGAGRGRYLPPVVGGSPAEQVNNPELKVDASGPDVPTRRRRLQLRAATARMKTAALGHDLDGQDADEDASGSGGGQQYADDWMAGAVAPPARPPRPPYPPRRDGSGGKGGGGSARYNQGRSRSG
# T2: recombinant human GPC2 protein (Homo sapiens, UniProt Q8N158)
# T2 construct: His; purchased RD System (R&D Systems) 2304-GP
# T2 sequence (Q8N158 24-554): T1 sequence (Q8N158 24-554)
# T3: human GPC2 expressing cells SH-SY5Y (Homo sapiens, UniProt Q8N158)
# T3 construct: host or cells: SH-SY5Y
# T3 sequence (Q8N158 24-554): T1 sequence (Q8N158 24-554)
# T4: human GPC2 expressing cells HEK293T/hGPC2 (Homo sapiens, UniProt Q8N158)
# T4 construct: expressed in transfected cells; host or cells: HEK293T (ATCC, #CRL-1573), plvx-EF1α-puro plasmid
# T4 sequence (Q8N158 24-554): T1 sequence (Q8N158 24-554)
# B1: AS71529VH6-hIgG1Fc: AS71529VH6 VHH fused to human IgG1Fc fragment (protein)
# chain: EVQLVESGGGLVQPGGSLRLSCAVSEYRYSSRYCMGWFRQAPGKGREGVAAIDSNGSADYVDSVKGRFTISKDNSKNTLYLQMNSLRAEDTAMYYCAADHLAYDCYSGATSVFRYWGQGTLVTVSS
# modifications: left off: a dimerising Fc or GST
# notes: AS71529VH6 VHH fused to human IgG1Fc fragment
# B2: AS79236VH6-hIgG1Fc: AS79236VH6 VHH fused to human IgG1Fc fragment (protein)
# chain: EVQLVESGGGLVQPGGSLRLSCAVSGYTYSSYCMAWFRQAPGKGLEGVASIDAGGRTTYVDSVKGRFTISKDNAKNSLYLQMNSLRAEDTAMYYCAVDVRTRCGGTWDGEAVYFPYWGQGTLVTVSS
# modifications: left off: a dimerising Fc or GST
# notes: AS79236VH6 VHH fused to human IgG1Fc fragment
# B3: AS70950VH6-hIgG1Fc: AS70950VH6 VHH fused to human IgG1Fc fragment (protein)
# chain: EVQLVESGGGLVQPGGSLRLSCAISEFTYKNTCVGWFRQAPGKGREGVAAIDSDGNTNYVDSVKGRFTISQDNSKNTVYLQMNSLRAEDTAMYYCAAGAYCGRLLLWIGNYAYWGQGTLVTVSS
# modifications: left off: a dimerising Fc or GST
# notes: AS70950VH6 VHH fused to human IgG1Fc fragment
# B4: AS78117VH4-hIgG1Fc: AS78117VH4 VHH fused to human IgG1Fc fragment (protein)
# chain: EVQLVESGGGLVQPGGSLRLSCIVSRYTYATYSMAWFRQAPGKGLEGVSGLDSVGATGYAESVKGRFTISRDNSKNTLYLQMNSLRAEDTAVYYCVVDPASAKVTYGSWSTPSYAYWGQGTLVTVSS
# modifications: left off: a dimerising Fc or GST
# notes: AS78117VH4 VHH fused to human IgG1Fc fragment
# B5: AS71529VH6: humanized anti-GPC2 VHH, SEQ ID NO: 127; tested as VHH-HIS protein (protein)
# VHH: B1 chain
# modifications: His tag; AS71529VH6
# notes: tested as VHH-HIS protein
# B6: AS72669VH6: humanized anti-GPC2 VHH, SEQ ID NO: 130; tested as VHH-HIS protein (protein)
# VHH: QVQLVESGGGVVQPGGSLRLSCAASRFTYSSYCMGWIRQAPGKGREGVAIFYTGGGRTYYADSVKGRFTISQDNSKNTLYLQMNSLRAEDTAVYYCVAGFYCSGGYWEGDFGYWGQGTLVTVSS
# modifications: His tag; AS72669VH6
# notes: tested as VHH-HIS protein
# B7: AS71529VH6-AS70950VH6: tandem humanized anti-GPC2 VHH, SEQ ID NO: 146; tested as VHH-HIS protein (protein)
# VHH: EVQLVESGGGLVQPGGSLRLSCAVSEYRYSSRYCMGWFRQAPGKGREGVAAIDSNGSADYVDSVKGRFTISKDNSKNTLYLQMNSLRAEDTAMYYCAADHLAYDCYSGATSVFRYWGQGTLVTVSSGGGGSGGGGSGGGGSEVQLVESGGGLVQPGGSLRLSCAISEFTYKNTCVGWFRQAPGKGREGVAAIDSDGNTNYVDSVKGRFTISQDNSKNTVYLQMNSLRAEDTAMYYCAAGAYCGRLLLWIGNYAYWGQGTLVTVSS
# modifications: His tag; AS71529VH6-AS70950VH6
# notes: tested as VHH-HIS protein
# B8: AS70950VH6: humanized anti-GPC2 VHH, SEQ ID NO: 124; tested as VHH-HIS protein (protein)
# VHH: B3 chain
# modifications: His tag; AS70950VH6
# notes: tested as VHH-HIS protein
# Target: T1, recombinant human GPC2-His protein
# Assay: SPR (Biacore T200) affinity of anti-GPC2 VHH-hIgG1Fc
# Settings: 1:1 binding model
# Experimental: Each of the exemplary anti-GPC2 VHH sequences was cloned into a vector comprising a human IgG1Fc fragment (hlgG1Fc) sequence to facilitate recombinant expression of anti-GPC2 VHH-hlgG1Fc. Recombinant proteins were obtained and purified for SPR assays. The affinity of each anti-GPC2 VHH-hIgG1Fc for GPC2 was determined by SPR using a BIACORE® T200 analytical system (GE Healthcare). Briefly, recombinant human GPC2-His protein was covalently coupled to a CM5(s) sensor chip using an amine coupling kit. Exemplary VHH-hIgG1Fc proteins were serially diluted in running buffer (10 mM HEPES, 150 mM NaCl, 3 mM EDTA, 0.05% Tween-20, pH 7.4) and injected over the chip cell at a flowrate of 100 μL/min for 100 seconds followed by buffer-only injection for 300 seconds to allow for antibody dissociation. The dissociation […] (KD) were determined using the BIACORE® T200 evaluation software version 3.0 (Langmuir binding, local fit, 1:1 binding model).
Molecule,ka [M⁻¹ s⁻¹],kd [s⁻¹]
B1,850000,0.0044
B2,530000,0.00019
B3,390000,0.00011
B4,200000,0.00017

# Target: T2, recombinant human GPC2 protein
# Assay: ELISA-based specific binding assay, human GPC2
# Settings: FIG. 3A-3G
# Experimental: (§1) To evaluate the specificity of humanized anti-GPC2 VHH5 to recombinant human GPC2 protein, an ELISA-based binding assay was conducted to determine the differential target proteins binding of anti-GPC2 VHH5. Briefly, microplates were coated with 2 μg/mL recombinant human GPC1-His (RD System, Cat #4519-GP), GPC2-His (RD System, Cat #2304-GP), GPC3-His (ACRO, Cat #GP3-H5223), GPC4-Fc (RD System, Cat #9195-GP), GPC5-His (RD System, Cat #2607-G5/CF), GPC6-His (RD System, Cat #2845-GP) or recombinant mouse GPC2-His (RD System, Cat #2355-GP) proteins. Recombinant human protein coated plates were blocked with skim milk. Serially diluted humanized VHH-hIgG1Fc recombinant antibodies were added to each well of the plates and incubated at 4° C. for 1.5 h. Samples were further labelled with HRP-conjugated goat anti human IgG (H+L) secondary antibody (Genescript, Cat #A00166-1) and signal was developed with 3,3′,5,5′-Tetramethylbenzidine (TMB) substrate according to manufacturer's instruction. For the GPC4, VHH-His recombinant antibodies and anti-His tag secondary antibody (Genescript, Cat #A00612) were added to the GPC4-Fc coated plates instead. Optic density at 450 nm was measured by plate reader.
row,Molecule,binding to recombinant human GPC2 protein
1,B1,high affinity
2,B2,high affinity
3,B3,high affinity
4,B4,high affinity

# System: other recombinant human and murine GPC family proteins (human GPC1, GPC3, GPC4, GPC5, GPC6, mouse GPC2)
# Assay: ELISA-based specific binding assay, cross-reactivity
# Settings: FIG. 3A-3G
# Experimental: as §1
row,Molecule,cross-reactivity with other recombinant human and murine GPC family proteins
1,B2,no cross-reactivity
2,B3,no cross-reactivity
3,B4,no cross-reactivity

# Target: T3, human GPC2 expressing cells SH-SY5Y
# Assay: Flow cytometry binding of VHH-His proteins to SH-SY5Y
# Settings: FIG. 4A-4C
# Source text: (§2) Recombinant anti-GPC2 VHH-His proteins were constructed by fusing the anti-GPC2 VHH sequence to a mouse Ig heavy chain signal peptide sequence (N′-MGWSWILLFLLSVTAGVHS-C; SEQ ID NO: 179) at the N terminus, and a 6×His-tag (N′-HHHHHH-C; SEQ ID NO: 180) at the C terminus. The codons were further optimized for optimal expression in mammalian engineered immune effector cells. The obtained nucleotide sequences were then cloned into a mammalian expression vector pCDNA3.4 to provide expression plasmids.
# (§3) Binding affinities of humanized VHH proteins AS70950VH6, AS71529VH6, AS72669VH6 and AS71529VH6-AS70950VH6 anti-GPC2 VHH-HIS proteins to human GPC2 expressing cells (SH-SY5Y and HEK293T/hGPC2) and cynomolgus monkey GPC2 expressing cell (HEK293T/cynoGPC2) were determined using flow cytometry. Briefly, serially diluted anti-GPC2 VHH-HIS proteins were incubated with 2×10^5 target cells at 4° C. for 30 mins. After washing, cells were further labelled with THE™ His tag Antibody (iFluor 647) (Genescript, #A01802) at 4° C. for 30 mins. Fluorescence intensity was measured by flow cytometry. A four parameters variable slope curve was fitted to each group using GraphPad Prism for Windows Version 6.02.
row,Molecule,binding to SH-SY5Y
1,B5,specifically bind
2,B6,specifically bind
3,B7,specifically bind
4,B8,specifically bind

# Target: T4, human GPC2 expressing cells HEK293T/hGPC2
# Assay: Flow cytometry binding of VHH-His proteins to HEK293T/hGPC2
# Settings: FIG. 4A-4C
# Source text: as §2, §3
row,Molecule,binding to HEK293T/hGPC2
1,B5,specifically bind
2,B6,specifically bind
3,B7,specifically bind
4,B8,specifically bind

# System: cynomolgus monkey GPC2 expressing cell HEK293T/cynoGPC2
# Assay: Flow cytometry binding of VHH-His proteins to HEK293T/cynoGPC2
# Settings: FIG. 4A-4C
# Source text: as §2, §3
row,Molecule,binding to HEK293T/cynoGPC2
1,B5,specifically bind
2,B6,specifically bind
3,B7,specifically bind
4,B8,specifically bind
